Test results: paper PMC5503505 (Nature structural & molecular biology, 2017)

T1: Orc2 (S. cerevisiae, UniProt P32833 1-620)
T1 sequence: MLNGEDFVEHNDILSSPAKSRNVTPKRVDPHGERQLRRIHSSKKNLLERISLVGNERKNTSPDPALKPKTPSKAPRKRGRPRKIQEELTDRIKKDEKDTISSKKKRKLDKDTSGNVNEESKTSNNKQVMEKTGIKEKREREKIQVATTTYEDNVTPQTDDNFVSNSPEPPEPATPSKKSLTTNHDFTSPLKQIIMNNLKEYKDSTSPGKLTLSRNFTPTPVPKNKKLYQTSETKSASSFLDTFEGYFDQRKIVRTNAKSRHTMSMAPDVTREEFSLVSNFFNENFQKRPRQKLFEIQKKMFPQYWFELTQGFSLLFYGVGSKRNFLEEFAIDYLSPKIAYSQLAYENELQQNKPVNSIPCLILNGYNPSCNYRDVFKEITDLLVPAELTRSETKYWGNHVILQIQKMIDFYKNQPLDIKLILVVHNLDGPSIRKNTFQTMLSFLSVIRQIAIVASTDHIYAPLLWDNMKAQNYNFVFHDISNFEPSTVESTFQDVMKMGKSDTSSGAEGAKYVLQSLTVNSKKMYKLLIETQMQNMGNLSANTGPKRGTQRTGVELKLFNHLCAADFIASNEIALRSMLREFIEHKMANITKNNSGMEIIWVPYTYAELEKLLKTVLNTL

T2: Mcm2 (S. cerevisiae, UniProt P29469 1-868)
T2 sequence: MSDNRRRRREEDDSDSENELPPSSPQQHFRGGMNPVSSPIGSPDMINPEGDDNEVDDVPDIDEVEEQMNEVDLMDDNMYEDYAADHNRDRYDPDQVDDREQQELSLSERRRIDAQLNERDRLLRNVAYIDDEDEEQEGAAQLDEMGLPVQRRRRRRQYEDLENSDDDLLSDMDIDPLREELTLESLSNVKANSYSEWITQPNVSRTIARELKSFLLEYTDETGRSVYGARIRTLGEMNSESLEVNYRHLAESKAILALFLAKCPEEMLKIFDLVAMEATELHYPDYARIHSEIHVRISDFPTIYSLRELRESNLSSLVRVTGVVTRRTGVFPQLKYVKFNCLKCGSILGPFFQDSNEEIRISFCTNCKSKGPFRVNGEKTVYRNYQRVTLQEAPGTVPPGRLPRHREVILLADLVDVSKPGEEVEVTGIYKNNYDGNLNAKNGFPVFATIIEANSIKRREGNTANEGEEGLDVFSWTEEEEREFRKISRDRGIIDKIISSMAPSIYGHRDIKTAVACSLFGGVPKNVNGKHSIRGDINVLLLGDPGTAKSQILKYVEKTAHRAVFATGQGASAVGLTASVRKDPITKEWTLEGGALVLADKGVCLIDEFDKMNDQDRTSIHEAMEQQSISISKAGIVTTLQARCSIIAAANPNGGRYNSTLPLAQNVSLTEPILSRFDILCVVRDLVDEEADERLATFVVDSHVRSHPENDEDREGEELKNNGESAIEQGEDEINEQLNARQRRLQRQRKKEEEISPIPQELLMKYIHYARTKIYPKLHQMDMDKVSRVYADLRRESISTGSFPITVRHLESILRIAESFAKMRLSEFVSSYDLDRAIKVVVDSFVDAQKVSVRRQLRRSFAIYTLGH

T3: Orc4 (S. cerevisiae, UniProt P54791 1-529)
T3 sequence: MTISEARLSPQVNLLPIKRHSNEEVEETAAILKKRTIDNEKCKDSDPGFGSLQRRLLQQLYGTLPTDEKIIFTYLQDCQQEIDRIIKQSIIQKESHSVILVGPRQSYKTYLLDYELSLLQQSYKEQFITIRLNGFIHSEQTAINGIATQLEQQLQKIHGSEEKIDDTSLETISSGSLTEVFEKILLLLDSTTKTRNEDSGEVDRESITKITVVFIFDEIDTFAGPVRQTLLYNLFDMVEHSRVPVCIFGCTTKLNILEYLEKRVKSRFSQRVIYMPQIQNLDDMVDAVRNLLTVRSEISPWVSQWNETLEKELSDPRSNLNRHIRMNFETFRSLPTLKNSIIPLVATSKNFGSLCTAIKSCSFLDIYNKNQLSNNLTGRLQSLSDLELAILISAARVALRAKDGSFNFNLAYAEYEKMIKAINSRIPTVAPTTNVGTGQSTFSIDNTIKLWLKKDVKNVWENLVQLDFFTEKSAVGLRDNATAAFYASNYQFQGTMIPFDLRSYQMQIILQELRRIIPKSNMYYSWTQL

B1: Orc3 (natural protein)
chain: MSDLNQSKKMNVSEFADAQRSHYTVYPSLPQSNKNDKHIPFVKLLSGKESEVNVEKRWELYHQLHSHFHDQVDHIIDNIEADLKAEISDLLYSETTQKRRCFNTIFLLGSDSTTKIELKDESSRYNVLIELTPKESPNVRMMLRRSMYKLYSAADAEEHPTIKYEDINDEDGDFTEQNNDVSYDLSLVENFKRLFGKDLAMVFNFKDVDSINFNTLDNFIILLKSAFKYDHVKISLIFNINTNLSNIEKNLRQSTIRLLKRNYHKLDVSSNKGFKYGNQIFQSFLDTVDGKLNLSDRFVEFILSKMANNTNHNLQLLTKMLDYSLMSYFFQNAFSVFIDPVNVDFLNDDYLKILSRCPTFMFFVEGLIKQHAPADEILSLLTNKNRGLEEFFVEFLVRENPINGHAKFVARFLEEELNITNFNLIELYHNLLIGKLDSYLDRWSACKEYKDRLHFEPIDTIFQELFTLDNRSGLLTQSIFPSYKSNIEDNLLSWEQVLPSLDKENYDTLSGDLDKIMAPVLGQLFKLYREANMTINIYDFYIAFRETLPKEEILNFIRKDPSNTKLLELAETPDAFDKVALILFMQAIFAFENMGLIKFQSTKSYDLVEKCVWRGI
B2: Orc5 (natural protein)
chain: MNVTTPEVAFREYQTNCLASYISADPDITPSNLILQGYSGTGKTYTLKKYFNANPNLHAVWLEPVELVSWKPLLQAIARTVQYKLKTLYPNIPTTDYDPLQVEEPFLLVKTLHNIFVQYESLQEKTCLFLILDGFDSLQDLDAALFNKYIKLNELLPKDSKINIKFIYTMLETSFLQRYSTHCIPTVMFPRYNVDEVSTILVMSRCGELMEDSCLRKRIIEEQITDCTDDQFQNVAANFIHLIVQAFHSYTGNDIFALNDLIDFKWPKYVSRITKENIFEPLALYKSAIKLFLSTDDNLSENGQGESAITTNRDDLENSQTYDLSIISKYLLIASYICSYLEPRYDASIFSRKTRIIQGRAAYGRRKKKEVNPRYLQPSLFAIERLLAIFQAIFPIQGKAESGSLSALREESLMKANIEVFQNLSELHTLKLIATTMNKNIDYLSPKVRWKVNVPWEIIKEISESVHFNISDYFSDIHE

Key:
Test in all cases: cryo-EM structure
Orc2 = target: T1, Orc2
Mcm6 = Mcm6 (S. cerevisiae, UniProt P53091 1-1017)
Orc3 = target: B1
Mcm2 = target: T2, Mcm2
Orc4 = target: T3, Orc4

Chain of Mcm6 (P53091 whole entry): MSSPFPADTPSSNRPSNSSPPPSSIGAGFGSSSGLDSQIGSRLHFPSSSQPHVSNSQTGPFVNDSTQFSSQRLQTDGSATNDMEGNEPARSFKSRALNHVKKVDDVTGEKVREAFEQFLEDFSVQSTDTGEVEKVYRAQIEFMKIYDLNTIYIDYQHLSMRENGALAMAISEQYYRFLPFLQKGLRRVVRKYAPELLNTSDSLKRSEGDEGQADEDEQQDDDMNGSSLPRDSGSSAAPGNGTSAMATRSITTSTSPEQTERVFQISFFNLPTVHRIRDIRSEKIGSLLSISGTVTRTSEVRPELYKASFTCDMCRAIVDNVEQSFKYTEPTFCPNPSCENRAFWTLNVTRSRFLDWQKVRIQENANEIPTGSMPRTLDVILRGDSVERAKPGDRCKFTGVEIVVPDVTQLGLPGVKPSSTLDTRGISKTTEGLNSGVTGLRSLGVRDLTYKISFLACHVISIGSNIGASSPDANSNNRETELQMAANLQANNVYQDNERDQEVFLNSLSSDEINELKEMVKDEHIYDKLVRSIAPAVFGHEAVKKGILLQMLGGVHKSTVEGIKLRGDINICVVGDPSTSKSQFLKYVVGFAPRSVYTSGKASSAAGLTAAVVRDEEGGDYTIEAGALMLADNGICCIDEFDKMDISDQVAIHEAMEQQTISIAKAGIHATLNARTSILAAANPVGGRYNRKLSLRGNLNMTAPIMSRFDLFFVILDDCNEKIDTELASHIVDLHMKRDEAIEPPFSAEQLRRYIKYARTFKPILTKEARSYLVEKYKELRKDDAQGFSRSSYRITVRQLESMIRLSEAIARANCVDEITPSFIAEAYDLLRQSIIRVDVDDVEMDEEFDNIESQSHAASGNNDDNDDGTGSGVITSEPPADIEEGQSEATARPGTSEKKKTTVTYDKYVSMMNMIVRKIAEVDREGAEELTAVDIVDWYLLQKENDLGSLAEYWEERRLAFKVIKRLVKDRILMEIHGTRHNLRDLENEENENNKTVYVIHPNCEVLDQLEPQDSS

Binder	binding result (Orc2)	binding result (Mcm6)	binding result (Orc3)	binding result (Mcm2)	binding result (Orc4)
B1	binds	–	–	–	–
B2	–	binds	binds	binds	binds
